This passage reports Kd results from US20180030136A1.

The target in one test is human ICOS (human) (UniProt Q9Y6W8). The experiment in a line: Biacore, human ICOS.
For test [1], the target named is cynomolgus ICOS (cynomolgus). Nature of the test: Biacore, cyno ICOS.

Sequence of human ICOS (human) (Q9Y6W8 21-140 limits assumed): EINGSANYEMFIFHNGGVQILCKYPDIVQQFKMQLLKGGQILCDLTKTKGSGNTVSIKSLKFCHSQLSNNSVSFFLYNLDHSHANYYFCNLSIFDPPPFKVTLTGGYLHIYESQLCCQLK

B1: ICOS mAb clone 314.8 (antibody, from another filing, V domains shown)
VH: QVQLQQPGTELMKPGASVKLSCKASGYTFTTYWMHWVKQRPGQGLEWIGEIDPSDSYVNYNQNFKGKATLTVDKSSSTAYIQLSSLTSEDSAVYFCARSPDYYGTSLAWFDYWGQGTLVTVST
VL: DIVMTQAAPSVPVTPGESVSISCRSSKSPLHSNGNIYLYWFLQRPGQSPQLLIYRMSNLASGVPDRFSGSGSGTTFTLKISRVEAEDVGVYYCMQHLEYPYTFGGGTKLEIK
On to B1, for which the Kd with human ICOS (human) was found to be 17 nM; in test [1] it was 9.3 nM.
